Data published in patent publication US20190367578A1 (Novo Nordisk, published 2019).
*1 amine or outer side, *2 acyl side, *3 side chain or, on linkers, in order; H or OH if unused. Where no end group is shown, it is not given here. Side-chain parts run from the residue outwards. [ ]: non-standard residue; d: D form. The star is where a group is joined. C20 diacid = O=C(O)CCCCCCCCCCCCCCCCCCC(=O)*; C18 diacid = O=C(O)CCCCCCCCCCCCCCCCC(=O)*; γGlu = O=C(O)[C@H](CCC(=O)[*:2])N[*:1]; Nle = CCCC[C@H](N)C(=O)O; AEEA = NCCOCCOCC(=O)O; Aib = CC(C)(N)C(=O)O

These molecules were tested against T1, human GIP receptor (human) (UniProt P48546) (assay: cell-based or functional assay).
T1 sequence (looked up): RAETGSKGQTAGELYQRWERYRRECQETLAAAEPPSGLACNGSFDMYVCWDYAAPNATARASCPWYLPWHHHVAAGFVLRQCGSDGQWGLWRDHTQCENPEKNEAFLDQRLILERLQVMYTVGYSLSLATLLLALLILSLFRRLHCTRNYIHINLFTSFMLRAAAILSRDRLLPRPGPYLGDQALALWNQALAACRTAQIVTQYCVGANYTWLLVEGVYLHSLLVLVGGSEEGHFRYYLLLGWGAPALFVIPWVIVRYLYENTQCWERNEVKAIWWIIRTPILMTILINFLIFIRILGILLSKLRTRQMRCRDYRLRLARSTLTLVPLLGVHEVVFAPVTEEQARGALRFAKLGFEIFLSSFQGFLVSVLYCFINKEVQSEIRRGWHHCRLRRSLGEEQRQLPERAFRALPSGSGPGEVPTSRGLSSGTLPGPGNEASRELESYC

Molecule | EC50 (pM), hGIP-R CRE Luc, 0.2% HSA [pM]
N{Epsilon-24}-[(4S)-4-carboxy-4-[[(4S)-4-carboxy-4-[[(4S)-4-carboxy-4-[[4-[(19-carboxynonadecanoylamino)methyl]cyclohexanecarbonyl]amino]butanoyl]amino]butanoyl]amino]butanoyl]-[Aib2,Nle14,Arg18,Lys24]-hGIP(1-31) (peptide) | 72.1
N{1}-acetyl,N{Epsilon-24}-[(4S)-4-carboxy-4-[[(4S)-4-carboxy-4-[[(4S)-4-carboxy-4-[[4-[(19-carboxynonadecanoylamino)methyl]cyclohexanecarbonyl]amino]butanoyl]amino]butanoyl]amino]butanoyl]-[D-Tyr1,Aib2,Nle14,Arg18,Lys24]-hGIP(1-31) (peptide) | 135
N{1}-acetyl, N{Epsilon-24}-[(4S)-4-carboxy-4-[[(4S)-4-carboxy-4-[[(4S)-4-carboxy-4-(17-carboxyheptadecanoylamino)butanoyl]amino]butanoyl]amino]butanoyl]-[D-Tyr1,Aib2,Nle14,Arg18,Lys24]-hGIP(1-31) (peptide) | 20.9
N{1}-acetyl,N{Epsilon-24}-[(4S)-4-carboxy-4-[[(4S)-4-carboxy-4-[[(4S)-4-carboxy-4-[[(4S)-4-carboxy-4-[[4-[(19-carboxynonadecanoylamino)methyl]cyclohexanecarbonyl]amino]butanoyl]amino]butanoyl]amino]butanoyl]amino]butanoyl]-[D-Tyr1,Aib2,Nle14,Arg18,Lys24,Pro31]-hGIP(1-31) amide (peptide) | 26.1
N{1}-acetyl,N{Epsilon-24}-[(4S)-4-carboxy-4-[[(4S)-4-carboxy-4-[[(4S)-4-carboxy-4-(17-carboxyheptadecanoylamino)butanoyl]amino]butanoyl]amino]butanoyl]-[D-Tyr1,Aib2,Nle14,Arg18,Lys24,Pro31]-hGIP(1-31) amide (peptide) | 21.2
N{Epsilon-24}-[(4S)-4-carboxy-4-[[(4S)-4-carboxy-4-[[(4S)-4-carboxy-4-[[4-[(19-carboxynonadecanoylamino)methyl]cyclohexanecarbonyl]amino]butanoyl]amino]butanoyl]amino]butanoyl]-[Aib2,Nle14,Arg18,Lys24,Pro31]-hGIP(1-31) amide (peptide) | 61.5
N{Epsilon-24}-[2-[2-[2-[[2-[2-[2-[[(4S)-4-carboxy-4-[[4-[(19-carboxynonadecanoylamino)methyl]cyclohexanecarbonyl]amino]butanoyl]amino]ethoxy]ethoxy]acetyl]amino]ethoxy]ethoxy]acetyl]-[Aib2,Nle14,Arg18,Lys24]-hGIP(1-31) (peptide) | 44.7
Y[Aib]EGTFISDYSIA[Nle]DKIHQQDFVK([γGlu-γGlu-γGlu-C18 diacid])WLLAQKG | 49.9
Ac-[dY]AEGTFISDYSIA[Nle]DKIRQQDFVK([γGlu-γGlu-γGlu-C18 diacid])WLLAQKG | 48.9
Ac-[dY]AEGTFISDYSIA[Nle]DKIRQQDFVK([γGlu-γGlu-γGlu-4‑(aminomethyl)cyclohexanecarbonyl-C20 diacid])WLLAQKG | 180
Y[Aib]EGTFISDYSIA[Nle]DKIRQEDFVK([γGlu-γGlu-γGlu-C18 diacid])WLLAQKG | 62.9
Y[Aib]EGTFISDYSIA[Nle]DKIRQEDFVK([γGlu-γGlu-γGlu-4‑(aminomethyl)cyclohexanecarbonyl-C20 diacid])WLLAQKG | 252
Y[Aib]EGTFISDYSIA[Nle]DKIRQ[Aib]DFVK([γGlu-γGlu-γGlu-C18 diacid])WLLAQKG | 9.4
Y[Aib]EGTFISDYSIA[Nle]DKIRQ[Aib]DFVK([γGlu-γGlu-γGlu-4‑(aminomethyl)cyclohexanecarbonyl-C20 diacid])WLLAQKG | 71.2
Y[Aib]EGTFISDYSIA[Nle]DAIRQQDFVK([γGlu-γGlu-γGlu-C18 diacid])WLLAQKG | 72.5
Y[Aib]EGTFISDYSIA[Nle]DAIRQQDFVK([γGlu-γGlu-γGlu-4‑(aminomethyl)cyclohexanecarbonyl-C20 diacid])WLLAQKG | 266

Molecule | EC50 (pM), hGIP-R CRE Luc, 0.2% HSA [pM]
Ac-[dY]AEGTFISDYSIA[Nle]DKIRQQDFVK([AEEA-AEEA-γGlu-C18 diacid])WLLAQKG | 30.4
Ac-[dY]AEGTFISDYSIA[Nle]DKIRQEDFVK([AEEA-AEEA-γGlu-C18 diacid])WLLAQKG | 25
Ac-[dY]AEGTFISDYSIA[Nle]DKIRQQDFVK([AEEA-AEEA-γGlu-γGlu-γGlu-C18 diacid])WLLAQKG | 43.1
Ac-YAEGTFISDYSIA[Nle]DKIRQQDFVK([γGlu-γGlu-γGlu-C18 diacid])WLLAQKG | 546
Ac-[dY]AEGTFISDYSIADDKIRQEDFVK([AEEA-AEEA-γGlu-C18 diacid])WLLAQKG | 91.5
Y[Aib]EGTFISDYSIA[Nle]DKIHQEDFVK([γGlu-γGlu-γGlu-γGlu-C18 diacid])WLLAQKG | 158
Y[Aib]EGTFISDYSIA[Nle]DKIHQEDFVK([γGlu-γGlu-γGlu-γGlu-4‑(aminomethyl)cyclohexanecarbonyl-C20 diacid])WLLAQKG | 810
Ac-[dY]AEGTFISDYSIA[Nle]DKIHQEDFVK([γGlu-γGlu-γGlu-4‑(aminomethyl)cyclohexanecarbonyl-C20 diacid])WLLAQKG | 547
Ac-[dY]AEGTFISDYSIA[Nle]DKIHQ[Aib]DFVK([γGlu-γGlu-γGlu-4‑(aminomethyl)cyclohexanecarbonyl-C20 diacid])WLLAQKG | 153
Y[Aib]EGTFISDYSIA[Nle]DKIHQQDFVK([γGlu-γGlu-γGlu-4‑(aminomethyl)cyclohexanecarbonyl-C20 diacid])WLLAQKP-NH2 | 67.5
Ac-[dY]AEGTFISDYSIA[Nle]DKIRQQDFVK([γGlu-γGlu-γGlu-4‑(aminomethyl)cyclohexanecarbonyl-C20 diacid])WLLAQKP-NH2 | 76.2
Ac-[dY]AEGTFISDYSIA[Nle]DKIHQQDFVK([γGlu-γGlu-γGlu-4‑(aminomethyl)cyclohexanecarbonyl-C20 diacid])WLLAQKP-NH2 | 71.2
Ac-[dY][Aib]EGTFISDYSIA[Nle]DKIHQQDFVK([γGlu-γGlu-γGlu-4‑(aminomethyl)cyclohexanecarbonyl-C20 diacid])WLLAQKP-NH2 | 38.4
Y[Aib]EGTFISDYSIA[Nle]DKIHQQDFVK([γGlu-γGlu-γGlu-C18 diacid])WLLAQKGKENDWKHNITQ | 21.3
Y[Aib]EGTFISDYSIA[Nle]DKIRQQDFVK([AEEA-AEEA-γGlu-4‑(aminomethyl)cyclohexanecarbonyl-C20 diacid])WLLAQKGKEEDWKHNITQ | 14
Y[Aib]EGTFISDYSIA[Nle]DKIRQQDFVK([γGlu-γGlu-γGlu-4‑(aminomethyl)cyclohexanecarbonyl-C20 diacid])WLLAQKGKEEDWKHNITQ | 22

These molecules were tested against human GLP-1 receptor (human) (UniProt P43220) (assay: cell-based or functional assay).
Sequence of human GLP-1 receptor (human) (P43220 24-463): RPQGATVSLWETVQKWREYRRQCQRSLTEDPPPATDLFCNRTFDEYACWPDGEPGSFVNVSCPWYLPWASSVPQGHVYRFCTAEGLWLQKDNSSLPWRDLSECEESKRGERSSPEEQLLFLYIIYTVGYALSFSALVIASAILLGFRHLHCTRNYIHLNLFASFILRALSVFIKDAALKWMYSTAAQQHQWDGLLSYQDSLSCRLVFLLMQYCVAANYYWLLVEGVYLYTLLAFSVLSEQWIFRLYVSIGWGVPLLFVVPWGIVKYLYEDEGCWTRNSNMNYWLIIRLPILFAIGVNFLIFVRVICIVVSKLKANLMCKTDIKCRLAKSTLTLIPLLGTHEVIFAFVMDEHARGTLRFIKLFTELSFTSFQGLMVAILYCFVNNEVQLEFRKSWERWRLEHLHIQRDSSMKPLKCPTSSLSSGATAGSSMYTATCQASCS

Molecule | EC50 (pM), hGLP-1-R CRE Luc, 0.2% HSA [pM] | EC50 (pM), hGLP-1-R CRE Luc, 1% HSA (footnote *) [pM]
N{1}-acetyl,N{Epsilon-24}-[(4S)-4-carboxy-4-[[(4S)-4-carboxy-4-[[(4S)-4-carboxy-4-(17-carboxyheptadecanoylamino)butanoyl]amino]butanoyl]amino]butanoyl]-[D-Tyr1,Aib2,Nle14,Arg18,Lys24,Pro31]-hGIP(1-31) amide (peptide) | > 100000 | –
Y[Aib]EGTFISDYSIA[Nle]DKIHQQDFVK([γGlu-γGlu-γGlu-C18 diacid])WLLAQKG | – | > 100000
Y[Aib]EGTFISDYSIA[Nle]DKIHQQDFVK([γGlu-γGlu-γGlu-C18 diacid])WLLAQKGKENDWKHNITQ | – | > 100000

Each molecule was assayed against human glucagon receptor (human) (UniProt P47871) (assay: cell-based or functional assay).
Sequence of human glucagon receptor (human) (P47871 26-477): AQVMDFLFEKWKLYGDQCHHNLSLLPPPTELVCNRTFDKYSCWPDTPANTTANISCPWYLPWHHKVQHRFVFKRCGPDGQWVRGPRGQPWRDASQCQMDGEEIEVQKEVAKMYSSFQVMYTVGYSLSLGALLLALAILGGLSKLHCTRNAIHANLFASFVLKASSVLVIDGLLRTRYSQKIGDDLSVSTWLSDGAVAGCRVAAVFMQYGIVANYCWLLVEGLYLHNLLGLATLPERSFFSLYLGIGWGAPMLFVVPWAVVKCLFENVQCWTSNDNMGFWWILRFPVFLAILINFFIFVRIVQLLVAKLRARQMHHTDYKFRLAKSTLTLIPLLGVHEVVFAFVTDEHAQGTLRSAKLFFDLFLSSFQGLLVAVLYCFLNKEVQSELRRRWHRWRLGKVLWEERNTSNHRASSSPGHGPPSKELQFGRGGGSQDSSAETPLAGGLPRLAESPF

Molecule | EC50 (pM), hGcg-R CRE Luc, 1% HSA (footnote *) [pM]
N{1}-acetyl,N{Epsilon-24}-[(4S)-4-carboxy-4-[[(4S)-4-carboxy-4-[[(4S)-4-carboxy-4-[[(4S)-4-carboxy-4-[[4-[(19-carboxynonadecanoylamino)methyl]cyclohexanecarbonyl]amino]butanoyl]amino]butanoyl]amino]butanoyl]amino]butanoyl]-[D-Tyr1,Aib2,Nle14,Arg18,Lys24,Pro31]-hGIP(1-31) amide (peptide) | > 100000
Y[Aib]EGTFISDYSIA[Nle]DKIHQQDFVK([γGlu-γGlu-γGlu-C18 diacid])WLLAQKG | > 100000
Y[Aib]EGTFISDYSIA[Nle]DKIHQQDFVK([γGlu-γGlu-γGlu-C18 diacid])WLLAQKGKENDWKHNITQ | > 100000
